What was measured:
[1] = Enzymatic assay of purified glutamate dehydrogenases, amination of 2-ketobutyrate (NADPH consumption at 340 nm); format: biochemical
Method: To characterize the enzymes, both the wild-type glutamate dehydrogenase GDHwt and mutant GDH2 were added an N-terminal 6×His-tag, overexpressed, and purified through Ni-NTA columns. The kinetic parameters for […] of 2-ketoglutarate (cognate substrate) and 2-ketoisovalerate or 2-ketobutyrate (nonnatural substrates) were determined by monitoring the consumption of NADPH at 340 nm (FIG. 6). […] The increase in binding affinity is very helpful since high concentration of 2-ketobutyrate interferes with cellular metabolic activities (see, e.g. Daniel et al. (1983) Mol Gen Genet 190(3):452-458). On the basis of the crystallographic model for the active site of GDH, amino group of K92 hydrogenbonds to the γ-carboxyl group of 2-ketoglutarate and determines the substrate specificity (see, e.g. Stillman et al. (1993) J Mol Biol 234(4):1131-1139). Mutation of lysine to valine increases the hydrophobic character of the binding pocket, which explains why the specificity constant kcat/Km of GDH2 towards 2-ketobutyrate is 50-fold higher than that towards the natural substrate 2-ketoglutarate.
Both gene fragments encoding wildtype glutamate dehydrogenase and GDH2 were amplified using primers GDHbamfwd and GDHbamrev. After digestion with BamHI, the gene fragments were inserted into expression plasmid pQE9 (Qiagen). The resulting expression plasmids were transformed into E. coli strain BL21(DE3) harboring pREP4 (Qiagen). Cells were inoculated from an overnight preculture at 1/100 dilution and grown in 200 mL 2XYT rich medium containing 50 mg/L ampicillin and 25 mg/L kanamycin. At an OD600 of 0.6, recombinant proteins were expressed by induction of the cell cultures with 0.1 mM IPTG, followed by incubation at 30° C. overnight. Overexpressed proteins were then purified with Ni-nitrilotriacetic acid columns. Protein concentration was determined by measuring UV absorbance at 280 nm.
(§1) Enzymatic assay was performed in assay buffer (100 mM Tris buffer, pH 8.0) containing 0.2M NH4Cl, 0.2 mM NADPH, and various concentrations of 2-ketoacids. The reactions were started by adding the purified enzymes, and the consumption of NADPH was monitored at 340 nm (extinction coefficient, 6.22 mM^−1 cm^−1). Kinetic parameters (kcat and Km) were determined by fitting initial velocity data to the Michaelis-Menten equation using Origin.

[2] = Enzymatic assay of purified glutamate dehydrogenases, amination of 2-ketoglutarate (NADPH consumption at 340 nm); format: biochemical
Method: (§2) To characterize the enzymes, both the wild-type glutamate dehydrogenase GDHwt and mutant GDH2 were added an N-terminal 6×His-tag, overexpressed, and purified through Ni-NTA columns. The kinetic parameters for […] of 2-ketoglutarate (cognate substrate) and 2-ketoisovalerate or 2-ketobutyrate (nonnatural substrates) were determined by monitoring the consumption of NADPH at 340 nm (FIG. 6). […] The increase in binding affinity is very helpful since high concentration of 2-ketobutyrate interferes with cellular metabolic activities (see, e.g. Daniel et al. (1983) Mol Gen Genet 190(3):452-458). […]
(§3) Both gene fragments encoding wildtype glutamate dehydrogenase and GDH2 were amplified using primers GDHbamfwd and GDHbamrev. […] Protein concentration was determined by measuring UV absorbance at 280 nm.
as §1

[3] = Enzymatic assay of purified glutamate dehydrogenases, amination of 2-ketoisovalerate (NADPH consumption at 340 nm); format: biochemical
Method: as §2, §3, §1

2-ketobutyrate = assay: Conversion of fed 2-ketobutyrate to L-homoalanine by E. coli BW25113 overexpressing amination enzymes; format: cell-based, Escherichia coli; design: L-homoalanine produced: unit not given here
Method: FIG. 2 is a graph comparing different amination enzymes on the production of L-homoalanine. E. coli cultures were inoculated in M9 medium with addition of 10 g/L 2-ketobutyrate and incubated at 37° C. for 24 h. The horizontal axis labels are defined as follows: (A) Wild-type E. coli BW25113; overexpression of (B) transaminase IlvE (C) valine dehydrogenase from Streptomyces avermitilis; (D) valine dehydrogenase from Streptomyces coelicolor, (E) valine dehydrogenase from Streptomyces fradiae; (F) evolved glutamate dehydrogenase GDH1; and (G) evolved glutamate dehydrogenase GDH2. The error bars represent standard deviations from three independent experiments.
In order to check if any endogenous transaminase of E. coli can work on 2-ketobutyrate, we fed 10 g/L 2-ketobutyrate to wildtype E. coli strain BW25113 growing in M9 medium. […] Since the branched-chain amino acid aminotransferase IlvE (see, e.g. Inoue K, et al. (1988) J Biochem 104(5):777-784) is likely to be a functional candidate, we cloned and overexpressed IlvE in BW25113, which increased the production of L-homoalanine to […] (FIG. 2B). […] However, high concentration of glutamate is needed to drive the reaction equilibrium because transamination is a reversible reaction process. Even under such extreme conditions, the conversion rate of transaminating 2-ketobutyrate to L-homoalanine is only 32%.
To test the conversion of 2-ketobutyrate to L-homoalanine, plasmids pZElac_IlvE, pZElac_VDHsa, pZElac_VDHsc, pZElac_VDHsf, pZElac_GDH and pZElac_GDH2 were transformed into BW25113. The transformants were inoculated in M9 medium with 5 g/L yeast extract, 10 g/L ammonium hydrochloride and 20 g/L glucose. Once OD reached ˜1.0, 10 g/L 2-ketobutyrate plus 0.1 mM IPTG were added and incubated at 37° C. for 24 h. Amino acids were quantified as o-phthaldialdehyde (OPA) derivatives by HPLC analysis.

[4] = test system: valine auxotrophic E. coli (ΔavtA, ΔilvE); assay: Growth rescue of valine auxotrophic E. coli (ΔavtA, ΔilvE) in M9 minimal medium; format: cell-based, Escherichia coli; details: absence of valine
Source text: FIG. 4A illustrates a binding pocket of Clostridium symbiosum glutamate dehydrogenase (PDB: 1BGV) complexed with its natural substrate glutamate. Residues K89, T193, V377, and S380 are within a radius of 6 Å of the γ-carbon of glutamate. […] The binding pocket is conserved, and the corresponding residues of E. coli GDH are K92, T195, V377, and S380. These residues were subjected to site-saturation mutagenesis with randomized NNK codon. A library size of 2 million members was transformed into valine auxotrophic E. coli and selected for mutants growing in M9 minimal medium. FIG. 4C is a graph showing the growth curve of E. coli (AavtA, AilvE) transformants in minimal medium. −Val means absence of valine. +Val means presence of valine. Or cells are transformed with GDH1 (K92L, T195A, V377A, and S380C mutations) or GDH2 (K92V and T195S mutations) mutant.
To this end, we have developed a selection strategy to evolve GDH. Deletion of transaminase genes avtA and ilvE from the chromosome makes wild-type E. coli valine auxotrophic (see, e.g. Wang et al. (1987) J Bacteriol 169(9):4228-4234), whose growth in minimal medium can be rescued by a mutant GDH active on aminating the valine precursor 2-ketoisovalerate (FIG. 3B). […]

threonine = assay: Production of L-homoalanine from glucose by E. coli overexpressing GDH2 and threonine dehydratases; format: cell-based, Escherichia coli; details: overexpression in BW25113
Source text: FIG. 5A is a graph with horizontal axis labels defined as follows: (1) BW25113; (2) BW25113 with overexpression of GDH2; (3) ATCC98082 with overexpression of TdcB & GDH2; (4) ATCC98082 with overexpression of IlvAEc & GDH2; (5) ATCC98082 with overexpression of IlvABS & GDH2; and (6) ATCC98082 (ArhtA) with overexpression of IlvABS and GDH2. FIG. 5B is a graph showing the yield of L-homolalanine biosynthesis from glucose. The error bars represent standard deviations from three independent experiments.
To test the production of L-homoalanine from glucose, E. coli strain ATCC98082 harboring plasmid pZS_thrO (see, e.g. Zhang et al. (2008) Proc Natl Acad Sci USA 105(52):20653-20658) was transformed with pZElac_tdcB_GDH, pZElac_ilvAEC_GDH and pZElac_ilvABS_GDH. These transformants were subjected to fermentation using the following production medium: 30 g glucose, 17 g (NH4)2SO4, 2 g KH2PO4, 1 g MgSO4.7H2O, 2 g yeast extract, 0.1 g L-valine, 0.01 g FeSO4:7H2O and 0.01 g MnSO4:7H2O per liter. Antibiotics were added appropriately (ampicillin 50 mg/L, spectinomycin 25 mg/L). Overnight 2XYT culture were diluted 25× into fermentation medium and 0.1 mM isopropyl-b-D-thiogalactoside (IPTG) was added to induce protein expression. In shake flask experiments, the culture medium was buffered by addition of 30 g/L CaCO3. Cultures were incubated in 33° C. shaker (250 rpm) for 40-50 h until glucose was consumed.

B1: GDH2: evolved E. coli glutamate dehydrogenase mutant with K92V and T195S mutations (protein, listed as Escherichia coli)
chain: MDQTYSLESFLNHVQKRDPNQTEFAQAVREVMTTLWPFLEQNPKYRQMSLLERLVEPERVIQFRVVWVDDRNQIQVNRAWRVQFSSAIGPYVGGMRFHPSVNLSILKFLGFEQTFKNALTTLPMGGGKGGSDFDPKGKSEGEVMRFCQALMTELYRHLGADTDVPAGDIGVGGREVGFMAGMMKKLSNNTACVFSGKGLSFGGSLIRPEATGYGLVYFTEAMLKRHGMGFEGMRVSVSGSGNVAQYAIEKAMEFGARVITASDSSGTVVDESGFTKEKLARLIEIKASRDGRVADYAKEFGLVYLEGQQPWSLPVDIALPCATQNELDVDAAHQLIANGVKAVAEGANMPTTIEATELFQQAGVLFAPGKAANAGGVATSGLEMAQNAARLGWKAEKVDARLHHIMLDIHHACVEHGGEGEQTNYVQGANIAGFVKVADAMLAQGVI
decrease in Km on 2-ketobutyrate compared to GDHwt [1]: 4 fold | increase in kcat on 2-ketobutyrate compared to GDHwt [1]: 2 fold | kcat towards 2-ketobutyrate ([1]; 100 mM Tris pH 8.0, 0.2M NH4Cl, 0.2 mM NADPH): 90.2 s⁻¹ | Km ([1]; 100 mM Tris pH 8.0, 0.2M NH4Cl, 0.2 mM NADPH, read-out: Km towards 2-ketobutyrate): 8.4 mM | specificity constant kcat/Km towards 2-ketobutyrate, higher than towards 2-ketoglutarate ([1]; 2-ketobutyrate versus natural substrate 2-ketoglutarate): 50 fold | specificity constant kcat/Km towards 2-ketoglutarate, smaller than that of GDHwt [2]: ~3,000 fold | kcat towards 2-ketoisovalerate relative to GDHwt [3]: five times higher kcat than GDHwt | productivity of L-homoalanine (2-ketobutyrate; 10 g/L 2-ketobutyrate fed): 5.1 g/L/day | conversion yield of 2-ketobutyrate to L-homoalanine (2-ketobutyrate; 10 g/L 2-ketobutyrate, no glutamate feeding): 50% | L-homoalanine produced (2-ketobutyrate; BW25113 transformant, 10 g/L 2-ketobutyrate fed, M9 medium, 37° C., 24 h): 5.1 | rescue of cell growth without valine [4]: successfully rescued the valine auxotrophic phenotype | L-homoalanine produced from glucose (threonine): 0.1 g/L

Reference: patent US9550980B2, “Composition and methods for the production of L-homoalanine” (The Regents of the University of California, priority 2010, dated 2017)
